Reference: patent US10947270B2, “Targeted prodrug cytosine deaminase fusion carrier and application thereof” (National Yang-Ming University, priority 2015, dated 2021)

How the values were obtained:
[1] = molecular target: integrin αvβ3 receptor (Homo sapiens, UniProt P05106+P06756); assay: ELISA binding assay of yCD series recombinant protein to integrin αvβ3 receptor; details: ELISA
Method: FIGS. 3A-3B show the binding affinity and specificity of RGD4C-yCD, yCD, RGD4C-yCD/UPRT and yCD/UPRT proteins to integrin αvβ3. The binding affinities of RGD4C-yCD, yCD, RGD4C-yCD/UPRT and yCD/UPRT proteins to integrin αvβ3 were determined by ELISA assay using horseradish peroxidase (HRP)-tagged anti-His6 antibody (FIG. 3A). The dissociation constant Kd is obtained by prism software with curve fitting method. […] (*compared with untreated RGDfv group, P<0.05)
The specific binding ability of RGD4C-yCD, yCD, RGD4C-yCD/UPRT and yCD/UPRT recombinant protein to integrin αvβ3 receptor is analyzed by ELISA binding assay, plotted with prism software and made with curve fitting to find the dissociation constant Kd value.

[2] = test system: HUVEC, U87MG and MCF-7 cells; assay: Specific binding assay of yCD series recombinant protein and cell, statement for the three cells; type: cell-based, human
Method: FIG. 5A, FIG. 5B, and FIG. 5C are respectively represented HUVEC cells, U87MG cells, MCF-7 cells seeded in 96-well plates for 24 hours, and then RGD4C-yCD, yCD, RGD4C-yCD/UPRT and yCD/UPRT with different concentrations are added for cells binding assay. After reacted with anti-His-HRP antibody and TMB substrate, ELISA reader (OD450 nm) is used to detect the amount of recombinant protein bound to the cells, and the binding curve is drawn. The nonlinear curve of the prism software is used to make a diagram and calculate the dissociation constant (Kd).
The anti-His6-Tag-HRP antibody and TMB show the color reagent to detect the amount of recombinant protein bound to the cell, then the dissociation constant Kd value of the recombinant protein and the integrin αvβ3 receptor is calculated and a binding curve is drawn. […] The cell binding ability of RGD4C-yCD for HUVEC and U87MG are about 7.7 folds and 6.8 folds higher than MCF-7 respectively. The cell binding ability of RGD4C-yCD/UPRT for HUVEC and U87MG are about 6.9 folds and 5.8 folds higher than MCF-7 respectively. […] It is shown that RGD4C-yCD and RGD4C-yCD/UPRT are specially bound with integrin αvβ3 through RGD4C sequence.

[3] = Relative substrate selectivity of cytosine deaminase enzyme for 5-FC and cytosine (formula 1); type: biochemical; details: relative substrate selectivity to 5-FC
From the text: Evaluation of the relative substrate selectivity of cytosine deaminase enzyme for 5-FC and Cytosine can be expressed by the following formula 1,
The higher the value, the higher the selectivity of the enzyme to the 5-FC substrate.

[4] = Enzyme stability of EcCD series fusion protein and yCD protein in FBS or transferrin; type: in vitro ADME; details: 37° C.; for enzyme activity: 24 hours
Method: FIGS. 12A-12C show an enzyme stability analysis of EcCD series fusion protein and yCD protein.
Previous literature reports indicate that the thermostability of E. coli cytosine deaminase (EcCD) is better than that of yCD. […] In order to simulate the environment of the protein in the cell killing test, the EcCD series fusion protein and the yCD protein are cultured in 10% FBS at 37° C. for 0, 1, 2, 4, 24 hours, and then determine the enzyme kinetics. It can be observed from the results that the yCD protein is cultured in 10% FBS for 1 hour, the enzyme activity is reduced to 80%, and when cultured for 2 and 4 hours, the enzyme activity is reduced to 50% and 20%, respectively, and the enzyme activity is lost after culturing for 24 hours, while the EcCD series fusion protein is similar to the culture in 100% FBS, which can maintain the original enzyme activity (see FIG. 12B). The literature points out that the metal ion of the enzyme catalytic center will affect the stability of the enzyme. In the yCD protein involved in the enzyme reaction, the metal ion of the enzyme catalytic center has a considerable relationship with the enzyme activity. The protein associated with transporting metal ions in serum is transferrin. It is speculated that transferrin may be related to the enzyme activity of yCD protein. Therefore, the EcCD series fusion protein and yCD protein are co-cultured respectively with transferrin at a concentration of 3 mg/ml (normal concentration 2.1-3.4 mg/mL) at 37° C. for 0, 1, 2, 4, 24 hours, then determine the enzyme kinetics (see FIG. 12C), it is known from the results that the longer the yCD protein is cultured in the transferrin, the lower the enzyme activity will be. […] This trend is similar to the culture at 10% in FBS. It is speculated that the factor of reducing the activity of yCD protein in FBS has a great relationship with transferrin. The stability of yCD protein in FBS is poor, and the stability of EcCD series fusion protein is better, so the industrial use of EcCD series fusion protein in both sexual and therapeutic applications is better than that of yCD protein, and it is also confirmed that the mutation of RGD4C peptide and D314A will not affect the enzyme stability of EcCD protein.

Sequence of integrin αvβ3 receptor (P06756 31-889 limits assumed): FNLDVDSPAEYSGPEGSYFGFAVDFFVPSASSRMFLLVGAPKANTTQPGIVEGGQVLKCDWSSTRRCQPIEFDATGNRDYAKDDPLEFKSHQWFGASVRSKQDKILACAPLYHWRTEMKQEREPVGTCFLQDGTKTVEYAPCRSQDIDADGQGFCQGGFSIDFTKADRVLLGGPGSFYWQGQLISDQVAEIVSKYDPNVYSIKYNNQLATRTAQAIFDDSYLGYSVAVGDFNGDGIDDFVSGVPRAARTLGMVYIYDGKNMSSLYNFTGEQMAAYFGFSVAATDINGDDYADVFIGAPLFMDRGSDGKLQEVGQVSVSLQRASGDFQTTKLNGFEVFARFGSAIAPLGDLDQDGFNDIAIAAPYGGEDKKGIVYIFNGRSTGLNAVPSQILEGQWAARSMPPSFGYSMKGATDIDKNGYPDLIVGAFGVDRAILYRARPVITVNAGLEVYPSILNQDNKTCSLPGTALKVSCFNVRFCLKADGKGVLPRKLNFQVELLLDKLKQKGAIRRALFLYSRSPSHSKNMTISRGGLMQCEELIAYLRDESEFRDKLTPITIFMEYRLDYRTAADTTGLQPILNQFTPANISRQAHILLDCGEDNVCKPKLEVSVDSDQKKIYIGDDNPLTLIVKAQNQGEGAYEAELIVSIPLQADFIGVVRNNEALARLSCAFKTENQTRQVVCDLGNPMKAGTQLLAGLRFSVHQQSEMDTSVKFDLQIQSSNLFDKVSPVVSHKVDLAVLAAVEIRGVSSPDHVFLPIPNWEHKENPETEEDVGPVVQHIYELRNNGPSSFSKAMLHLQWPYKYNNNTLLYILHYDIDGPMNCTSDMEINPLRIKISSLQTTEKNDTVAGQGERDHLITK
Sequence of integrin αvβ3 receptor (P06756 891-1048 partner limits assumed): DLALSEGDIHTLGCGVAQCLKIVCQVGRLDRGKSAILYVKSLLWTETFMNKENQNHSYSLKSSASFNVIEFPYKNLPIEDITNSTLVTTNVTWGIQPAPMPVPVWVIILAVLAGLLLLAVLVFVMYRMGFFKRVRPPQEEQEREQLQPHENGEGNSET
Sequence of integrin αvβ3 receptor (P05106 27-788): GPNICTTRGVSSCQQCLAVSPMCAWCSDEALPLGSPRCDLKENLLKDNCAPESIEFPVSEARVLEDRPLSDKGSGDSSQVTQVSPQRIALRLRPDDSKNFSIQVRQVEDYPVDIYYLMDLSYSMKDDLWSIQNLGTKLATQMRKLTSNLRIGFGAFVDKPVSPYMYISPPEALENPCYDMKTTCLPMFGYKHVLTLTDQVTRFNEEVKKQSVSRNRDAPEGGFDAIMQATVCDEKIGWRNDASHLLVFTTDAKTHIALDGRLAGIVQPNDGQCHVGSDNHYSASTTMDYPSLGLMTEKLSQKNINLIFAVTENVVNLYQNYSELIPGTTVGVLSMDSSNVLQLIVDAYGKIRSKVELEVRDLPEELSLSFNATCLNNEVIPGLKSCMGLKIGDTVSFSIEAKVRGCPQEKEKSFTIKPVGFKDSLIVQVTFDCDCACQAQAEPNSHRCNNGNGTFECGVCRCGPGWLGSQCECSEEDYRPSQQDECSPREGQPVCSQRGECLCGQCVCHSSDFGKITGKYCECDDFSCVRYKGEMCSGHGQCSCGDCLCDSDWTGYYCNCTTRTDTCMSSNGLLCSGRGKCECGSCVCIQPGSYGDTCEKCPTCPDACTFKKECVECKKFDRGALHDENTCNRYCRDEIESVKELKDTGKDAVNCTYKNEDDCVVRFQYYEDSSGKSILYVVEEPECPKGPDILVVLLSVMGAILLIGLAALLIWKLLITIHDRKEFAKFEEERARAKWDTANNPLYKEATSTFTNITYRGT

- binding to integrin αvβ3 [1]: cannot be bound
B1: yCD: yeast cytosine deaminase (yCD) (SEQ ID NO: 1), recombinant protein without target molecule (protein)
chain: MVVTGGMASKWDQKGMDIAYEEAALGYKEGGVPIGGCLINNKDGSVLGRGHNMRFQKGSATLHGEISTLENCGRLEGKVYKDTTLYTTLSPCDMCTGAIIMYGIPRCVVGENVNFKSKGEKYLQTRGHEVVVVDDERCKKIMKQFIDERPQDWFEDIGELEHHHHHH
modifications: yCD
- binding to the three cells [2]: weak binding
- [Kcat/Km(5-FC)]/{[Kcat/Km(cytosine)] + [Kcat/Km(5-FC)]} [3]: 0.771
- enzyme activity ([4]; 3 mg/ml transferrin): close to the loss of activity
- enzyme activity (Kcat/Km relative to 0 hours) ([4]; 10% FBS, 1 hour): 80%
- enzyme activity (Kcat/Km relative to 0 hours) ([4]; 10% FBS, 2 hours): 50%
- enzyme activity (Kcat/Km relative to 0 hours) ([4]; 10% FBS, 4 hours): 20%
- enzyme activity ([4]; 10% FBS): lost
